Data published in US20260201008A1, “SECRETIN-DERIVED GLP1R SELECTIVE AGONISTS” (GUBRA A/S, priority 2023, published 2026).
≈ marks a conversion by molar mass, not a printed value. Where two headings read alike, the source gives them in different places. Numbered stars: 1 amine (or outer) side, 2 acyl side, 3 side chain; on linkers, the order of the positions; unused ones are H or OH. Square brackets hold non-standard residues; d marks the D form. Side chains are listed from the residue outwards. Ends that are not written are not given here. Peptide text beside a SMILES is read from it. * marks the point of attachment. C20 diacid = O=C(O)CCCCCCCCCCCCCCCCCCC(=O)*; γGlu = O=C(O)[C@H](CCC(=O)[*:2])N[*:1]; AEEA = NCCOCCOCC(=O)O; Aib = CC(C)(N)C(=O)O

Experiments:
[1] = Fibril formation of crude library peptides (Thioflavin T); format: physicochemical; set-up: key: average ThT fluorescence emission at 480 nm (ex 450 nm), raw units; details: Physical stability of peptides
How it was run: (§1)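 Turbidity is the absorbance at 600 nm, taken before heating. Fibril signal is the mean ThT emission at 480 nm (450 nm excitation), read every 10 min over 72 h at 40° C with 700 rpm shaking between reads. Peptides at 267 μM, pH 4.0 acetate or pH 7.0 phosphate buffer (50 mM), 4 μM ThT final.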

SCTR = SCTR (Homo sapiens, UniProt P47872); experiment: hSCTR potency, cAMP accumulation in CHO-K1 cells stably overexpressing hSCTR; format: cell-based; set-up: alternatively Euroscreen ES-712-AF; FAST-0161L; host or cells: CHO-K1
Chain of SCTR (P47872 23-440): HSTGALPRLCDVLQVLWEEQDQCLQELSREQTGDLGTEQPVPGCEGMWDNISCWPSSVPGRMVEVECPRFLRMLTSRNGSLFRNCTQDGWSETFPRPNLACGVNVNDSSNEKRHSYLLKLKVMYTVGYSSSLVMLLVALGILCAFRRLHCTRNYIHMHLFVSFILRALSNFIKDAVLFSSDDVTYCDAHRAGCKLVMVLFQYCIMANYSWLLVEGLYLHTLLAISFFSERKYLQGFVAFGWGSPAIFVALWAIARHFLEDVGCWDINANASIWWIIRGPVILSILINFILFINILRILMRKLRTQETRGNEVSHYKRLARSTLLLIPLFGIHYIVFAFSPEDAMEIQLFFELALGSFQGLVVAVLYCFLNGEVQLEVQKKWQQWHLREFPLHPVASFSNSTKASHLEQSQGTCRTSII
How it was run: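 Thawed CHO-K1 cells carrying stable hSCTR are plated into casein/IBMX buffer (0.05%, 0.5 mM), dosed immediately for 30 min at room temperature, then cAMP is detected by TR-FRET. Purified peptides run as 11 three-fold dilutions in duplicate, and curves are fitted with variable slope.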

[2] = Solubility of purified peptides; format: physicochemical; details: 100 mM phosphate buffer, target pH 7.0, target approximately 10 mg/mL
Procedure: Solubility was tested in the following vehicles: 100 mM phosphate buffer facilitating a target pH of 7.0. Samples were directly dissolved in Mini-UniPrep Syringeless Filter 0.45 μm unit (Whatman). For the desired concentration, such as a concentration of approximately 10 mg/mL, 1050 nmol of peptide was dissolved in 400 μL vehicle. Samples were incubated for at least 1 h at room temperature on a rocking table. The pH was measured and adjusted. Samples were left on the rocking table for an additional hour before a second pH measurement and adjustment. Visual inspection was performed and noted before the filter was pushed. The concentration of peptide in the filtrate was determined using CAD (Charged Aerosol Detection), double determination was done for each sample. The measured concentration was reported in μM. Furthermore, the pH of the filtrate was measured and reported. Peptides with a measured concentration within +/−20% of target concentration are considered fully soluble.

[3] = Turbidity of crude library peptides (absorbance at 600 nm); format: physicochemical; details: Physical stability of peptides
How it was run: as §1

[4] = Thioflavin T fibril formation assay of purified peptides; format: physicochemical; details: 267 μM, phosphate buffer pH 7.0, 96 h at 40° C.
Procedure: Thioflavin T fibril formation assay: Peptides are dissolved as 267 μM in 50 mM phosphate buffer pH 7.0 for 2 h at room temperature on a rocking table. The samples were then divided into three replicates of 80 μl/well and mixed with 2 μl/well Thioflavin T (ThT) to a final concentration of 4 μM ThT in a black 384 well microplate with a clear bottom (Greiner #781096). The plate is inserted in a CLARIOstar Plus microplate reader (BMG Labtech) and fibril formation is measured as an increase in fluorescence emission at 480 nm (excitation at 450 nm) during 96 h at 40° C. with cycles of 5 min rest and 5 min linear shaking at 700 rpm.

GLP1R = GLP1R (Homo sapiens, UniProt P43220); experiment: hGLP1R potency, cAMP accumulation in CHO-K1 cells stably overexpressing hGLP1R; format: cell-based; set-up: host or cells: CHO-K1
Chain of GLP1R (P43220 24-463): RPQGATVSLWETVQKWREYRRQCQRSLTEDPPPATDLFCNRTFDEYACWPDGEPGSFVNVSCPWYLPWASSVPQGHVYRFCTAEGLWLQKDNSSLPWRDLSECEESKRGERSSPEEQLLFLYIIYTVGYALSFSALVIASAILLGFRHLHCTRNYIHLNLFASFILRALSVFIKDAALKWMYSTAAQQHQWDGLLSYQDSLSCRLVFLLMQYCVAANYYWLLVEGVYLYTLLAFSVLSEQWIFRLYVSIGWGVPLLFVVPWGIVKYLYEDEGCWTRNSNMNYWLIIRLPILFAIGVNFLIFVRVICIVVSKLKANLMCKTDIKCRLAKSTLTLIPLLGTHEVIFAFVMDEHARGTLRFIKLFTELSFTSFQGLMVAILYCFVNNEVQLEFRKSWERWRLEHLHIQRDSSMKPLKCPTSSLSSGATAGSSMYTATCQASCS
How it was run: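 2000 cells/well, DPBS + 0.05% casein + 0.5 mM IBMX; 30 min RT stimulation; HTRF cAMP detection after 1 h. Purified: 3-fold ×11, n=2; crude: 10-fold ×5, n=1. EC50 by variable-slope fit.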

[5] = biological target: T1, human secretin receptor (hSCTR) (human, UniProt P47872 23-440); experiment: cell-based or functional assay
T1 sequence (P47872 23-440): as the sequence (P47872 23-440) above

[6] = biological target: T2, human GLP-1 receptor (hGLP1R) (human, UniProt P43220 24-463); experiment: cell-based or functional assay
[7] = biological target: T1, human secretin receptor (hSCTR); experiment: cell-based or functional assay; remark: listed apart in the source
[8] = biological target: T2, human GLP-1 receptor (hGLP1R); experiment: cell-based or functional assay; remark: listed apart in the source

Molecule: CC(C)C[C@H](NC(=O)[C@H](Cc1ccccc1)NC(=O)[C@H](CCCNC(=N)N)NC(=O)[C@H](CCC(N)=O)NC(=O)[C@H](CC(C)C)NC(=O)C(C)(C)NC(=O)[C@H](C)NC(=O)[C@H](CCC(=O)O)NC(=O)[C@H](CCC(=O)O)NC(=O)[C@H](CCCCNC(=O)COCCOCCNC(=O)COCCOCCNC(=O)CC[C@H](NC(=O)CCCCCCCCCCCCCCCCCCC(=O)O)C(=O)O)NC(=O)[C@H](CC(C)C)NC(=O)[C@H](CCC(=O)O)NC(=O)[C@H](CO)NC(=O)[C@@H](NC(=O)[C@H](CC(=O)O)NC(=O)[C@H](CO)NC(=O)[C@@H](NC(=O)[C@H](Cc1ccccc1)NC(=O)[C@@H](NC(=O)CNC(=O)[C@H](CCC(=O)O)NC(=O)C(C)(C)NC(=O)[C@@H](N)Cc1c[nH]cn1)[C@@H](C)O)[C@@H](C)O)C(C)C)C(=O)N[C@@H](CCC(=O)O)C(=O)N[C@@H](Cc1c[nH]cn1)C(=O)N[C@@H](CC(C)C)C(=O)N[C@H](C(N)=O)C(C)C [compound 168] (H-H[Aib]EGTFTSDVSELK([AEEA-AEEA-γGlu-C20 diacid])EEA[Aib]LQRFLEHLV-NH2)
- Fibril formation [1]: 2998
- EC50 (SCTR; cAMP accumulation, CHO-K1 cells overexpressing hSCTR, read-out: hSCTR pEC50 (converted)): 50.1 nM
- EC50 (SCTR; purified peptides, read-out: hSCTR EC50): 100 nM
- solubility [2]: 9800 µg/mL (≈ 2560 µM)
- Turbidity (pH 7) [3]: 0.08
- Fibril formation [4]: No
- Selectivity (GLP1R; SCTR EC50/GLP1R EC50 ratio, purified peptides): 8333
- EC50 (GLP1R; cAMP accumulation, CHO-K1 cells overexpressing hGLP1R, read-out: hGLP1R pEC50 (converted)): 0.00631 nM
- SCTR EC50/GLP1R EC50 ratio (GLP1R; selectivity for hGLP1R over hSCTR, cAMP accumulation in CHO-K1 cells): 6853

B1: SEQ ID NO: 221 (peptide)
peptide: H[Aib]EGTFTSDPSRLLEGAALQRFIQWLV-NH2
modifications: N-terminus assumed
SMILES: CC[C@H](C)[C@H](NC(=O)[C@H](Cc1ccccc1)NC(=O)[C@H](CCCNC(=N)N)NC(=O)[C@H](CCC(N)=O)NC(=O)[C@H](CC(C)C)NC(=O)[C@H](C)NC(=O)[C@H](C)NC(=O)CNC(=O)[C@H](CCC(=O)O)NC(=O)[C@H](CC(C)C)NC(=O)[C@H](CC(C)C)NC(=O)[C@H](CCCNC(=N)N)NC(=O)[C@H](CO)NC(=O)[C@@H]1CCCN1C(=O)[C@H](CC(=O)O)NC(=O)[C@H](CO)NC(=O)[C@@H](NC(=O)[C@H](Cc1ccccc1)NC(=O)[C@@H](NC(=O)CNC(=O)[C@H](CCC(=O)O)NC(=O)C(C)(C)NC(=O)[C@@H](N)Cc1c[nH]cn1)[C@@H](C)O)[C@@H](C)O)C(=O)N[C@@H](CCC(N)=O)C(=O)N[C@@H](Cc1c[nH]c2ccccc12)C(=O)N[C@@H](CC(C)C)C(=O)N[C@H](C(N)=O)C(C)C
- pEC50 hSCTR [5]: 5.3 -log M
- pEC50 hGLPR1 [6]: 8.6 -log M

B2: SEQ ID NO: 220 (peptide)
peptide: H[Aib]EGTFTSDVSRLLEGAALQRFIQWLV-NH2
modifications: N-terminus assumed
SMILES: CC[C@H](C)[C@H](NC(=O)[C@H](Cc1ccccc1)NC(=O)[C@H](CCCNC(=N)N)NC(=O)[C@H](CCC(N)=O)NC(=O)[C@H](CC(C)C)NC(=O)[C@H](C)NC(=O)[C@H](C)NC(=O)CNC(=O)[C@H](CCC(=O)O)NC(=O)[C@H](CC(C)C)NC(=O)[C@H](CC(C)C)NC(=O)[C@H](CCCNC(=N)N)NC(=O)[C@H](CO)NC(=O)[C@@H](NC(=O)[C@H](CC(=O)O)NC(=O)[C@H](CO)NC(=O)[C@@H](NC(=O)[C@H](Cc1ccccc1)NC(=O)[C@@H](NC(=O)CNC(=O)[C@H](CCC(=O)O)NC(=O)C(C)(C)NC(=O)[C@@H](N)Cc1c[nH]cn1)[C@@H](C)O)[C@@H](C)O)C(C)C)C(=O)N[C@@H](CCC(N)=O)C(=O)N[C@@H](Cc1c[nH]c2ccccc12)C(=O)N[C@@H](CC(C)C)C(=O)N[C@H](C(N)=O)C(C)C
- pEC50 hSCTR [5]: 7.2 -log M
- pEC50 hGLPR1 [6]: 10.2 -log M

B3: SEQ ID NO: 216 (GUB06-046) (peptide)
peptide: H[Aib]EGTFTSDLSRLLEGAALQRFIQWLV-NH2
modifications: N-terminus assumed
SMILES: CC[C@H](C)[C@H](NC(=O)[C@H](Cc1ccccc1)NC(=O)[C@H](CCCNC(=N)N)NC(=O)[C@H](CCC(N)=O)NC(=O)[C@H](CC(C)C)NC(=O)[C@H](C)NC(=O)[C@H](C)NC(=O)CNC(=O)[C@H](CCC(=O)O)NC(=O)[C@H](CC(C)C)NC(=O)[C@H](CC(C)C)NC(=O)[C@H](CCCNC(=N)N)NC(=O)[C@H](CO)NC(=O)[C@H](CC(C)C)NC(=O)[C@H](CC(=O)O)NC(=O)[C@H](CO)NC(=O)[C@@H](NC(=O)[C@H](Cc1ccccc1)NC(=O)[C@@H](NC(=O)CNC(=O)[C@H](CCC(=O)O)NC(=O)C(C)(C)NC(=O)[C@@H](N)Cc1c[nH]cn1)[C@@H](C)O)[C@@H](C)O)C(=O)N[C@@H](CCC(N)=O)C(=O)N[C@@H](Cc1c[nH]c2ccccc12)C(=O)N[C@@H](CC(C)C)C(=O)N[C@H](C(N)=O)C(C)C
- pEC50 hSCTR [5]: 9.3 -log M
- pEC50 hGLPR1 [6]: 10.4 -log M
- pEC50 hSCTR [7]: 9.3 -log M
- pEC50 hGLPR1 [8]: 10.4 -log M

B4: SEQ ID NO: 218 (peptide)
peptide: H[Aib]EGTFTSDISRLLEGAALQRFIQWLV-NH2
modifications: N-terminus assumed
SMILES: CC[C@H](C)[C@H](NC(=O)[C@H](Cc1ccccc1)NC(=O)[C@H](CCCNC(=N)N)NC(=O)[C@H](CCC(N)=O)NC(=O)[C@H](CC(C)C)NC(=O)[C@H](C)NC(=O)[C@H](C)NC(=O)CNC(=O)[C@H](CCC(=O)O)NC(=O)[C@H](CC(C)C)NC(=O)[C@H](CC(C)C)NC(=O)[C@H](CCCNC(=N)N)NC(=O)[C@H](CO)NC(=O)[C@@H](NC(=O)[C@H](CC(=O)O)NC(=O)[C@H](CO)NC(=O)[C@@H](NC(=O)[C@H](Cc1ccccc1)NC(=O)[C@@H](NC(=O)CNC(=O)[C@H](CCC(=O)O)NC(=O)C(C)(C)NC(=O)[C@@H](N)Cc1c[nH]cn1)[C@@H](C)O)[C@@H](C)O)[C@@H](C)CC)C(=O)N[C@@H](CCC(N)=O)C(=O)N[C@@H](Cc1c[nH]c2ccccc12)C(=O)N[C@@H](CC(C)C)C(=O)N[C@H](C(N)=O)C(C)C
- pEC50 hSCTR [5]: 7.8 -log M
- pEC50 hGLPR1 [6]: 10.4 -log M

B5: SEQ ID NO: 222 (peptide)
peptide: H[Aib]EGTFTSD[Aib]SRLLEGAALQRFIQWLV-NH2
modifications: N-terminus assumed
SMILES: CC[C@H](C)[C@H](NC(=O)[C@H](Cc1ccccc1)NC(=O)[C@H](CCCNC(=N)N)NC(=O)[C@H](CCC(N)=O)NC(=O)[C@H](CC(C)C)NC(=O)[C@H](C)NC(=O)[C@H](C)NC(=O)CNC(=O)[C@H](CCC(=O)O)NC(=O)[C@H](CC(C)C)NC(=O)[C@H](CC(C)C)NC(=O)[C@H](CCCNC(=N)N)NC(=O)[C@H](CO)NC(=O)C(C)(C)NC(=O)[C@H](CC(=O)O)NC(=O)[C@H](CO)NC(=O)[C@@H](NC(=O)[C@H](Cc1ccccc1)NC(=O)[C@@H](NC(=O)CNC(=O)[C@H](CCC(=O)O)NC(=O)C(C)(C)NC(=O)[C@@H](N)Cc1c[nH]cn1)[C@@H](C)O)[C@@H](C)O)C(=O)N[C@@H](CCC(N)=O)C(=O)N[C@@H](Cc1c[nH]c2ccccc12)C(=O)N[C@@H](CC(C)C)C(=O)N[C@H](C(N)=O)C(C)C
- pEC50 hSCTR [5]: 6.5 -log M
- pEC50 hGLPR1 [6]: 9.9 -log M
